Experimental data published in paper PMC5778469.

Biological target: T1, Cascade (type I-E effector complex) (Escherichia coli, UniProt Q46901;P76632;Q46899;Q46898;Q46897 1-502;1-160;1-363;1-224;1-199)
T1 sequence 1: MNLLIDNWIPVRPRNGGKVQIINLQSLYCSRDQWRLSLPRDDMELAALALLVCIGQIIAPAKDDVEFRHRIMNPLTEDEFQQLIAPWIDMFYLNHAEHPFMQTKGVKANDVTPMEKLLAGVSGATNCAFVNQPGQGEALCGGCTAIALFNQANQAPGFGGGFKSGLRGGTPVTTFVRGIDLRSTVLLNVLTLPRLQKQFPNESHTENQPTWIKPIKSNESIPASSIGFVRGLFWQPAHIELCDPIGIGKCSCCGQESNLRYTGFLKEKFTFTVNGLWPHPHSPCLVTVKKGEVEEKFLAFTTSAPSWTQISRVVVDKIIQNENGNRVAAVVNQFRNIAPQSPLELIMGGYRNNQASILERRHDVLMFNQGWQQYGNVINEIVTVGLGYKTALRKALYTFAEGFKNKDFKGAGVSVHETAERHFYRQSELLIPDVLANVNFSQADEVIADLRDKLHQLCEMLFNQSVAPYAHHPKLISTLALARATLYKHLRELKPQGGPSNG
T1 sequence 2: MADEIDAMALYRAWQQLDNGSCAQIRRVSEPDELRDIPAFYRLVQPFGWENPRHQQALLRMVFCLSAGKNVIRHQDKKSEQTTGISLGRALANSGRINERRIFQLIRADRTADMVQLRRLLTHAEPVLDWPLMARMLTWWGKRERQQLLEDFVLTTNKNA
T1 sequence 3: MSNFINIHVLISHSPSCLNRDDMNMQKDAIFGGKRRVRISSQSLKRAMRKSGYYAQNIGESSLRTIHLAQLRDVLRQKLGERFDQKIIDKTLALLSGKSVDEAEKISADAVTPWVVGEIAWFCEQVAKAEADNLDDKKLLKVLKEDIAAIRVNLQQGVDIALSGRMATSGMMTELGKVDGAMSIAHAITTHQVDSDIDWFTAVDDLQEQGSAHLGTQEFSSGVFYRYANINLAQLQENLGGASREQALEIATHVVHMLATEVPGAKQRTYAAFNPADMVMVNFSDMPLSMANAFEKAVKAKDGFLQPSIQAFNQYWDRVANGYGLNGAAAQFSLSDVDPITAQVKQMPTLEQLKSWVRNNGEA
T1 sequence 4: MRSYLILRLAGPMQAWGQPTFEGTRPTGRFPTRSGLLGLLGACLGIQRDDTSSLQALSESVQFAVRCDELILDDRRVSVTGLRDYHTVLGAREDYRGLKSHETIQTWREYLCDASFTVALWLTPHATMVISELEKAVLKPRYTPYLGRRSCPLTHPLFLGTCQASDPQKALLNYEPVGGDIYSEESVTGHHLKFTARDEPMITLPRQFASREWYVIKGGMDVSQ
T1 sequence 5: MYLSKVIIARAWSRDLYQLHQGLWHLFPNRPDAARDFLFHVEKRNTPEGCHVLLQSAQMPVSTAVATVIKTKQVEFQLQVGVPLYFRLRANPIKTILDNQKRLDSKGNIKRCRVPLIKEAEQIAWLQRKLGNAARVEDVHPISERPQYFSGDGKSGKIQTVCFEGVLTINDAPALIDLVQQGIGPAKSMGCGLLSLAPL
Assay: EMSA

B1: sp8 target, 5-ghmC, with Cascade crRNA sp8 (dsDNA)
DNA 1: TTCATTTGATGCTCGATGAGTTTTTCTAAAAGCTGACGACCGGGTCTCCGCAAGTGGCACTTTTCCATGACCAAAATCCCTTAACGTGAGTTTTCGTT
DNA 2: AACGAAAACTCACGTTAAGGGATTTTGGTCATGGAAAAGTGCCACTTGCGGAGACCCGGTCGTCAGCTTTTAGAAAAACTCATCGAGCATCAAATGAA
modifications: glucosyl-5-hydroxymethylcytosine replacing C; exact positions not stated
  binding result: no binding
